Test results: patent US20190241662A1 (ADAGENE, published 2019)

T1: human OX40 on HEK293F cells (human, UniProt P43489 29-277)
T1 construct: whole, on cells
T1 sequence (looked up): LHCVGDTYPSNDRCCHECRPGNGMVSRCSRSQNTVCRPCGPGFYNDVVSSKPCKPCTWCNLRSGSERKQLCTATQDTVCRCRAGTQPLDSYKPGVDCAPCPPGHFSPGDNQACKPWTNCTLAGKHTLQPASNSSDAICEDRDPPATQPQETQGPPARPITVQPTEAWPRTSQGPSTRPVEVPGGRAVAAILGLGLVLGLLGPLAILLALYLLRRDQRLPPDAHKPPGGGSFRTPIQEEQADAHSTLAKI

T2: human TNFR1 on HEK293F cells (human, UniProt P19438 30-455)
T2 construct: whole, on cells; also called CD120a
T2 sequence (looked up): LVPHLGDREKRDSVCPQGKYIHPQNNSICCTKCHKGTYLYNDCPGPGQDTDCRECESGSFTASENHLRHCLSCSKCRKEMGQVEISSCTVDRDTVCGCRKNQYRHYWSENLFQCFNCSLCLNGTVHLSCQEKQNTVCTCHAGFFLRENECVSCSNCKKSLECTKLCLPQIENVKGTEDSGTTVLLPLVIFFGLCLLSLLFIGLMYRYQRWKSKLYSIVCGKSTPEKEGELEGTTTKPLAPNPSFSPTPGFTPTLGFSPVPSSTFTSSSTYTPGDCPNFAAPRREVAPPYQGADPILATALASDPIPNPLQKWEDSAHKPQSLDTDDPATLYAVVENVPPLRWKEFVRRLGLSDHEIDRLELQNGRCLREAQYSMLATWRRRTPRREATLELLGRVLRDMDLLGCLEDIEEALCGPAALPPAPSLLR

T3: human CD95 on HEK293F cells (human, UniProt P25445 26-335)
T3 construct: whole, on cells
T3 sequence (looked up): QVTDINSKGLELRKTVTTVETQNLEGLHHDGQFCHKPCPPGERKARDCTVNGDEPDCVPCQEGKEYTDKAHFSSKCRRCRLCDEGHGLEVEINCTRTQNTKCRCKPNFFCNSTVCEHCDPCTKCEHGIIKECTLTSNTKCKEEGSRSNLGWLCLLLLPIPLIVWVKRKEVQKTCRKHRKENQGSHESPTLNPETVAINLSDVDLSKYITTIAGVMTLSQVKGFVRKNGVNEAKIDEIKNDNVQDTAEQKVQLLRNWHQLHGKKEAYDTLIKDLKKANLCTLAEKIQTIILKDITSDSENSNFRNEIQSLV

T4: human Tim3 on HEK293F cells (human, UniProt Q8TDQ0 22-301)
T4 construct: whole, on cells
T4 sequence (looked up): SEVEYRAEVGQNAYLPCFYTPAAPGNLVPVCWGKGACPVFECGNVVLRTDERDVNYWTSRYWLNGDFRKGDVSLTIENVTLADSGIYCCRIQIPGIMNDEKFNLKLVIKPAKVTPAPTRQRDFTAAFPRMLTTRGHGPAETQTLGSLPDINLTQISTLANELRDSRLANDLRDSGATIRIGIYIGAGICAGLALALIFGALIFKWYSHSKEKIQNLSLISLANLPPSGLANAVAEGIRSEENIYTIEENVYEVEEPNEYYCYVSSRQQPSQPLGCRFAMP

T5: human B7H3 on HEK293F cells (human, UniProt Q5ZPR3 29-534)
T5 construct: whole, on cells
T5 sequence (looked up): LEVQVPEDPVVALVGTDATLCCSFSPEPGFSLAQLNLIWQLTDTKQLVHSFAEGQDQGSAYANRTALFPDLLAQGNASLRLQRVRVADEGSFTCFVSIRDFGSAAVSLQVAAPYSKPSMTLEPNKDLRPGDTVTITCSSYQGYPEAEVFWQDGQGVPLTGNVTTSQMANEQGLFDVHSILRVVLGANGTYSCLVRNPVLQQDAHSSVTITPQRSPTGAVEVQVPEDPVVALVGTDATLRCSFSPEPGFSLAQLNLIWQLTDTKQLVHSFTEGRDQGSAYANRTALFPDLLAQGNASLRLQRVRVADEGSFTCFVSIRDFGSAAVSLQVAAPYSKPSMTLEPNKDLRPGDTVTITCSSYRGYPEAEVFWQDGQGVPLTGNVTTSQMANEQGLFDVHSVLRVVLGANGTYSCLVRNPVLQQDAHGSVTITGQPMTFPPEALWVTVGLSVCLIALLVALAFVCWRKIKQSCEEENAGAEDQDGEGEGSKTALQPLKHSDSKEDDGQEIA


Columns and labels:
Assay in all cases: flow cytometry, transfected HEK293F cells
[1] = biological target: T1, human OX40 on HEK293F cells
Experimental: (§1) Antibody selectivity was next examined. Human CTLA4, PD1, LAG3, Tim3, B7H3, CD95, TNFR1, OX40, CD40, PD-L1, BLTA, VISTA, PDL2, ICOS and B7H4 were transiently overexpressed on the surface of HEK293F cells. Transfected cells were washed in pre-chilled 1×PBSA buffer (1.76 mM KH2PO4, 10.14 mM Na2HPO4.12H2O, 2.68 mM KCl, 136.89 mM NaCl and 1% BSA), then incubated with 100 nM test antibodies for 1 hour on ice. Cells were washed once with staining buffer, and Alexa Fluor® 647 conjugated mouse anti-human FC antibodies were added and incubated for 30 minutes on ice, protected from light. Samples were washed once with staining buffer prior to analysis by flow cytometry.

[2] = biological target: T2, human TNFR1 on HEK293F cells
Experimental: as §1

[3] = biological target: T3, human CD95 on HEK293F cells
Experimental: as §1

[4] = biological target: T4, human Tim3 on HEK293F cells
Experimental: as §1

[5] = biological target: T5, human B7H3 on HEK293F cells
Experimental: as §1

Binder | binding result [1] | binding result [2] | binding result [3] | binding result [4] | binding result [5]
TY21585 (antibody, V domains shown, human IgG1 (hIgG1) from Fab hit B15709) VH: EVQLVESGGGLVQPGGSLRLSCAASGFTFSDYAIHWVRQAPGKGLEWIGIISPSSGSTNYAQKFQGRVTISRDNSKNTLYLQLNSLRAEDTAVYYCARDIHSGSSGYYYGFDVWGQGTLVTVSS VL: DIQLTQSPSSLSASVGDRVTITCRASESVDFFGISFLAWYQQKPGKAPKLLIYDASNRATGIPSRFSGSGSGTDFTLTISSLQPEDFATYYCQHYTSSPPVYTFGQGTKVEIK | no binding (tested: 100 nM) | no binding (tested: 100 nM) | no binding (tested: 100 nM) | – | –
TY21691 (antibody, V domains shown, human IgG1 (hIgG1) from Fab hit B15736) VH: EVQLVESGGGLVQPGGSLRLSCAASGFTFSDYAIHWVRQAPGKGLEWIGIISPSGGSTKYAQKFQGRVTISRDNSKNTLYLQLNSLRAEDTAVYYCARLGYGYFDVWGQGTLVTVSS VL: DIQLTQSPSSLSASVGDRVTITCRASQSVDFYGISFLHWYQQKPGKAPKLLIYDASSLESGVPSRFSGSGSGTDFTLTISSLQPEDFATYYCVQALQLPLTFGQGTKVEIK | – | – | – | no binding (tested: 100 nM) | no binding (tested: 100 nM)
